T1: human IL6R (human, UniProt P08887 20-358, limits assumed)
T1 construct: also called IL-6 receptor
T1 sequence (looked up): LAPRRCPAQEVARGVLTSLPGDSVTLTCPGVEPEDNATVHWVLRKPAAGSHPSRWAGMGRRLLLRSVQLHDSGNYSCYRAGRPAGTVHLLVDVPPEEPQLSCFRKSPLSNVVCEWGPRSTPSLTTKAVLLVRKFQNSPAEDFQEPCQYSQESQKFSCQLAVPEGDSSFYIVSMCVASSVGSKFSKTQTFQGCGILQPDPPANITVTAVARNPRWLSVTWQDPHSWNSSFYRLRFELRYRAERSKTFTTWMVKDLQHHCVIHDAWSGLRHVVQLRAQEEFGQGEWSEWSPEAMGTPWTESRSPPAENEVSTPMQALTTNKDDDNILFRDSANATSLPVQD


How the values were obtained:
[1] = biological target: T1, human IL6R; test: ELISA, coated human IL6R, biotinylated anti-XTEN antibody and streptavidin-HRP
[2] = biological target: T2, human CD40-Fc fusion (human, UniProt P25942 21-193); test: ELISA, dilution series of cleared lysate on coated human CD40-Fc; Kd from EC50 and an estimated 10 µM in the lysate
T2 construct: Coated at 100 ng/well; not shown: Fc part of the fusion
T2 sequence (P25942 21-193 limits assumed): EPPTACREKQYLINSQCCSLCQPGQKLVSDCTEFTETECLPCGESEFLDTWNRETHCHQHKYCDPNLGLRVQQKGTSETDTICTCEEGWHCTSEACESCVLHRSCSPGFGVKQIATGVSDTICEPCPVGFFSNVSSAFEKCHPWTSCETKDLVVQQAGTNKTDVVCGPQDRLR

EC50 [1] [nM]	Kd [2] [nM]	Binder
5	–	aIL6R scFv-AE864, AC342 (scFv, Single-chain scFv-XTEN fusion expressed in E. coli; also called aIL6R-XTEN) scFv: MADIQMTQSPSSLSASVGDRVTITCRASQDISSYLNWYQQKPGKAPKLLIYYTSRLHSGVPSRFSGSGSGTDFTFTISSLQPEDIATYYCQQGNTLPYTFGQGTKVEIKTGSGEGSEGEGGGEGSEGEGSGEGGEGEGSGSQVQLQESGPGLVRPSQTLSLTCTVSGYSITSDHAWSWVRQPPGRGLEWIGYISYSGITTYNPSLKSRVTMLRDTSKNQFSLRLSSVTAADTAVYYCARSLARTTAMDYWGQGSLVTVSSGSPGSPAGSPTSTEEGTSESATPESGPGTSTEPSEGSAPGSPAGSPTSTEEGTSTEPSEGSAPGTSTEPSEGSAPGTSESATPESGPGSEPATSGSETPGSEPATSGSETPGSPAGSPTSTEEGTSESATPESGPGTSTEPSEGSAPGTSTEPSEGSAPGSPAGSPTSTEEGTSTEPSEGSAPGTSTEPSEGSAPGTSESATPESGPGTSTEPSEGSAPGTSESATPESGPGSEPATSGSETPGTSTEPSEGSAPGTSTEPSEGSAPGTSESATPESGPGTSESATPESGPGSPAGSPTSTEEGTSESATPESGPGSEPATSGSETPGTSESATPESGPGTSTEPSEGSAPGTSTEPSEGSAPGTSTEPSEGSAPGTSTEPSEGSAPGTSTEPSEGSAPGTSTEPSEGSAPGSPAGSPTSTEEGTSTEPSEGSAPGTSESATPESGPGSEPATSGSETPGTSESATPESGPGSEPATSGSETPGTSESATPESGPGTSTEPSEGSAPGTSESATPESGPGSPAGSPTSTEEGSPAGSPTSTEEGSPAGSPTSTEEGTSESATPESGPGTSTEPSEGSAPGTSESATPESGPGSEPATSGSETPGTSESATPESGPGSEPATSGSETPGTSESATPESGPGTSTEPSEGSAPGSPAGSPTSTEEGTSESATPESGPGSEPATSGSETPGTSESATPESGPGSPAGSPTSTEEGSPAGSPTSTEEGTSTEPSEGSAPGTSESATPESGPGTSESATPESGPGTSESATPESGPGSEPATSGSETPGSEPATSGSETPGSPAGSPTSTEEGTSTEPSEGSAPGTSTEPSEGSAPGSEPATSGSETPGTSESATPESGPGTSTEPSEGSAPG
–	~50	anti-CD40-AE864, AC384 (scFv, Tested as cleared E. coli lysate, not purified; also called aCD40-XTEN; pBC0009) scFv: MAEIVLTQSPATLSLSPGERATLSCRASQSISDYLHWYQQKPGQAPRLLIYYASHSISGIPARFSGSGSGTDFTLTISSLEPEDFAVYYCQHGHSYPWTFGGGTKVEIKTGSGEGSEGEGGGEGSEGEGSGEGGEGEGSGTQVQLVQSGSELKKPGASVKVSCKASGYAFTTTGMQWVRQAPGQGLEWMGWINTHSGVPKYVEDFKGRFVFSLDTSVSTAYLQISSLKAEDTAVYYCARSGNGNYDLAYFKYWGQGTLVTVSSGGSPAGSPTSTEEGTSESATPESGPGTSTEPSEGSAPGSPAGSPTSTEEGTSTEPSEGSAPGTSTEPSEGSAPGTSESATPESGPGSEPATSGSETPGSEPATSGSETPGSPAGSPTSTEEGTSESATPESGPGTSTEPSEGSAPGTSTEPSEGSAPGSPAGSPTSTEEGTSTEPSEGSAPGTSTEPSEGSAPGTSESATPESGPGTSTEPSEGSAPGTSESATPESGPGSEPATSGSETPGTSTEPSEGSAPGTSTEPSEGSAPGTSESATPESGPGTSESATPESGPGSPAGSPTSTEEGTSESATPESGPGSEPATSGSETPGTSESATPESGPGTSTEPSEGSAPGTSTEPSEGSAPGTSTEPSEGSAPGTSTEPSEGSAPGTSTEPSEGSAPGTSTEPSEGSAPGSPAGSPTSTEEGTSTEPSEGSAPGTSESATPESGPGSEPATSGSETPGTSESATPESGPGSEPATSGSETPGTSESATPESGPGTSTEPSEGSAPGTSESATPESGPGSPAGSPTSTEEGSPAGSPTSTEEGSPAGSPTSTEEGTSESATPESGPGTSTEPSEGSAPGTSESATPESGPGSEPATSGSETPGTSESATPESGPGSEPATSGSETPGTSESATPESGPGTSTEPSEGSAPGSPAGSPTSTEEGTSESATPESGPGSEPATSGSETPGTSESATPESGPGSPAGSPTSTEEGSPAGSPTSTEEGTSTEPSEGSAPGTSESATPESGPGTSESATPESGPGTSESATPESGPGSEPATSGSETPGSEPATSGSETPGSPAGSPTSTEEGTSTEPSEGSAPGTSTEPSEGSAPGSEPATSGSETPGTSESATPESGPGTSTEPSEGSAP
–	~50	anti-CD40-AE864, AC385 (scFv, Tested as cleared E. coli lysate, not purified; also called aCD40-XTEN; pBC0010) scFv: MAEIVLTQSPATLSLSPGERATLSCRASQSISDYLHWYQQKPGQAPRLLIYYASHSISGIPARFSGSGSGTDFTLTISSLEPEDFAVYYCQHGHSYPWTFGGGTKVEIKTGSGEGSEGEGGGEGSEGEGSGEGGEGEGSGTQVQLVQSGSELKKPGASVKVSCKASGYAFTTTGMQWVRQAPGQGLEWMGWINTHSGVPKYVEDFKGRFVFSLDTSVSTAYLQISSLKAEDTAVYYCARSGNGNYDLAYFKYWGQGTLVTVSSGGSPAGSPTSTEEGTSESATPESGPGTSTEPSEGSAPGSPAGSPTSTEEGTSTEPSEGSAPGTSTEPSEGSAPGTSESATPESGPGSEPATSGSETPGSEPATSGSETPGSPAGSPTSTEEGTSESATPESGPGTSTEPSEGSAPGTSTEPSEGSAPGSPAGSPTSTEEGTSTEPSEGSAPGTSTEPSEGSAPGTSESATPESGPGTSTEPSEGSAPGTSESATPESGPGSEPATSGSETPGTSTEPSEGSAPGTSTEPSEGSAPGTSESATPESGPGTSESATPESGPGSPAGSPTSTEEGTSESATPESGPGSEPATSGSETPGTSESATPESGPGTSTEPSEGSAPGTSTEPSEGSAPGTSTEPSEGSAPGTSTEPSEGSAPGTSTEPSEGSAPGTSTEPSEGSAPGSPAGSPTSTEEGTSTEPSEGSAPGTSESATPESGPGSEPATSGSETPGTSESATPESGPGSEPATSGSETPGTSESATPESGPGTSTEPSEGSAPGTSESATPESGPGSPAGSPTSTEEGSPAGSPTSTEEGSPAGSPTSTEEGTSESATPESGPGTSTEPSEGSAPGTSESATPESGPGSEPATSGSETPGTSESATPESGPGSEPATSGSETPGTSESATPESGPGTSTEPSEGSAPGSPAGSPTSTEEGTSESATPESGPGSEPATSGSETPGTSESATPESGPGSPAGSPTSTEEGSPAGSPTSTEEGTSTEPSEGSAPGTSESATPESGPGTSESATPESGPGTSESATPESGPGSEPATSGSETPGSEPATSGSETPGSPAGSPTSTEEGTSTEPSEGSAPGTSTEPSEGSAPGSEPATSGSETPGTSESATPESGPGTSTEPSEGSAP

Reference: US20130165389A1 (AMUNIX OPERATING, published 2013)
